The supplement of paper PMC9112550, “Optimization of the antimicrobial peptide Bac7 by deep mutational scanning” (BMC Biology, 2022)

System: Escherichia coli TOP10
Assay: shrunken log2 fold change of peptide-encoding DNA abundance (4.5 h post-induction vs induction); higher = less antimicrobial activity (less host growth inhibition)
Conditions: time post-induction: 4.5 h; library: site-saturation at positions 5, 18, 19, 20
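Further: peptides expressed intracellularly from a pBAD plasmid library in pooled LB shake-flask culture, induced with 0.3% L-arabinose, DNA abundance read by NGS, three biological replicates, DESeq2 with apeglm shrinkage.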

Row | Sequence | shrunken log2 fold change
1 | RRIRPRPPRLPRPRPRPQQWPRP | 0.182
2 | RRIRSRPPRLPRPRPRPHKSPRP | -0.414
3 | RRIRCRPPRLPRPRPRPNLIPRP | -0.872
4 | RRIRKRPPRLPRPRPRPWYWPRP | -0.151
5 | RRIRCRPPRLPRPRPRPRGMPRP | 1.56
6 | RRIRMRPPRLPRPRPRPDFPPRP | -0.0976
7 | RRIRKRPPRLPRPRPRPTHNPRP | 0.299
8 | RRIRIRPPRLPRPRPRPTAIPRP | -0.574
9 | RRIRQRPPRLPRPRPRPDKSPRP | -0.0319
10 | RRIRARPPRLPRPRPRPWCQPRP | -0.031
11 | RRIRTRPPRLPRPRPRPGASPRP | 0.156
12 | RRIRHRPPRLPRPRPRPGRLPRP | 0.129
13 | RRIRSRPPRLPRPRPRPWYVPRP | -0.36
14 | RRIRSRPPRLPRPRPRPHWRPRP | 0.39
15 | RRIRDRPPRLPRPRPRPTCSPRP | 0.112
16 | RRIRTRPPRLPRPRPRPPQDPRP | 0.608
17 | RRIRGRPPRLPRPRPRPIFIPRP | -0.0812
18 | RRIRVRPPRLPRPRPRPWFIPRP | -0.329
19 | RRIRVRPPRLPRPRPRPDPHPRP | -0.16
20 | RRIRARPPRLPRPRPRPTIPPRP | 0.132

Row | Sequence | shrunken log2 fold change
21 | RRIRPRPPRLPRPRPRPRMAPRP | 0.278
22 | RRIRSRPPRLPRPRPRPIVTPRP | -0.192
23 | RRIRCRPPRLPRPRPRPGVPPRP | -0.3
24 | RRIRIRPPRLPRPRPRPYDYPRP | -0.0343
25 | RRIRPRPPRLPRPRPRPRHMPRP | 0.116
26 | RRIRWRPPRLPRPRPRPVKRPRP | 0.015
27 | RRIRLRPPRLPRPRPRPKQPPRP | 0.119
28 | RRIRVRPPRLPRPRPRPCHRPRP | -0.0177
29 | RRIRKRPPRLPRPRPRPQQAPRP | -0.0621
30 | RRIRIRPPRLPRPRPRPIMLPRP | 0.112
31 | RRIRSRPPRLPRPRPRPCTTPRP | -0.135
32 | RRIRSRPPRLPRPRPRPGGLPRP | 0.177
33 | RRIRWRPPRLPRPRPRPAAQPRP | -0.0638
34 | RRIRMRPPRLPRPRPRPWPGPRP | 0.528
35 | RRIRLRPPRLPRPRPRPQMSPRP | -0.111
36 | RRIRMRPPRLPRPRPRPTMCPRP | 0.674
37 | RRIRARPPRLPRPRPRPDNMPRP | -0.45
38 | RRIRYRPPRLPRPRPRPQSHPRP | -0.416
39 | RRIRCRPPRLPRPRPRPPDNPRP | 0.0386
40 | RRIRFRPPRLPRPRPRPQEGPRP | -0.00638

Row | Sequence | shrunken log2 fold change
41 | RRIRYRPPRLPRPRPRPGPRPRP | 0.744
42 | RRIRDRPPRLPRPRPRPLELPRP | -0.014
43 | RRIRTRPPRLPRPRPRPSMLPRP | -0.204
44 | RRIRFRPPRLPRPRPRPHPCPRP | -0.231
45 | RRIRIRPPRLPRPRPRPWRRPRP | 1.46
46 | RRIRERPPRLPRPRPRPGDTPRP | -0.943
47 | RRIRCRPPRLPRPRPRPYHWPRP | -1.09
48 | RRIRPRPPRLPRPRPRPPDWPRP | 0.577
49 | RRIRSRPPRLPRPRPRPWTPPRP | -0.154
50 | RRIRTRPPRLPRPRPRPLAWPRP | 0.195
51 | RRIRQRPPRLPRPRPRPVVEPRP | 0.0249
52 | RRIRLRPPRLPRPRPRPRCRPRP | 0.434
53 | RRIRWRPPRLPRPRPRPCKGPRP | -0.186
54 | RRIRVRPPRLPRPRPRPIRCPRP | -0.0498
55 | RRIRYRPPRLPRPRPRPQHMPRP | -0.629
56 | RRIRHRPPRLPRPRPRPRLVPRP | -0.113
57 | RRIRKRPPRLPRPRPRPVGAPRP | 0.853
58 | RRIRERPPRLPRPRPRPTPRPRP | 0.669
59 | RRIRLRPPRLPRPRPRPFRDPRP | 0.00463
60 | RRIRPRPPRLPRPRPRPDKQPRP | 0.0524
